Laboratory results: paper PMC3886899 (Nature, 2013)

Target: SAMHD1(26-626) (human, UniProt Q9Y3Z3 26-626)
Assay: SEC

Chain of SAMHD1(26-626) (Q9Y3Z3 26-626): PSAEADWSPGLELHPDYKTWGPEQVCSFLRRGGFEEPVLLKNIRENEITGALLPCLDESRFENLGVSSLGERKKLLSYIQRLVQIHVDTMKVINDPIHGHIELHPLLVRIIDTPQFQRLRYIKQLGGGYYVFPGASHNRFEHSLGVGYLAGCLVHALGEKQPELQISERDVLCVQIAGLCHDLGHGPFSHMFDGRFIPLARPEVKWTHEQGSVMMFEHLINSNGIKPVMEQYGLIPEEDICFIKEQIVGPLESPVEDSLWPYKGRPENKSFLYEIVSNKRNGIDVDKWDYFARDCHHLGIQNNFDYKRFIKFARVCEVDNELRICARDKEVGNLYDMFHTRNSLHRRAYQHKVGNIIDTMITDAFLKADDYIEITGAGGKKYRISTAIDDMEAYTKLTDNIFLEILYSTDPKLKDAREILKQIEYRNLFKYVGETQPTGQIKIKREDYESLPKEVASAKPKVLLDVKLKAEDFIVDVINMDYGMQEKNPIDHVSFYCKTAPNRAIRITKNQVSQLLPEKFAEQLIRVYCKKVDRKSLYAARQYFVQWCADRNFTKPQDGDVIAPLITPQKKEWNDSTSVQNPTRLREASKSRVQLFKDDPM

B1: Vpxsm/DCAF1-CtD (complex)
chain 1: MSDPRERIPPGNSGEETIGEAFDWLDRTVEEINRAAVNHLPRELIFQVWRRSWEYWHDEMGMSVSYTKYRYLCLIQKAMFMHCKKGCRCLGGEHGAGGWRPGPPPPPPPGLA
chain 2: not shown
binding result: binds
